Reference: the DeepSol protein solubility set

Assay: soluble on expression in E. coli; label from the status in PepcDB or PDB records

| Sequence | soluble on expression in E. coli |
| --- | --- |
| MANIEIRQESPSAFYIKVHETDNVAIIVNDHGLKAGTRFPDGLELTEHIPQGHKVALTDIPAHGEIIRYGEVIGYAVRDIPRGSWIDESLVELPKAPPLNTLPLATKVPEPLPPLEGYTFEGYRNADGSVGTKNLLGITTSVHCVAGVVDYVVKVIERDLLPKYPNVDGVVGLNHLYGCGVAINAPAAVVPIRTIHNIALNPNFGGEVMVIGLGCEKLQPERLLEGTEDVPAIAVESASIVRLQDEQHVGFKSMVDDILRVAERHLTKLNQRQRETCPASELVVGMQCGGSDAFSGVTANPAVGYASDLLVRCGATVMFSEVTEVRDAIHLLTPRAINEAVGKRLLDEMAWYDNYLDMGKTDRSANPSPGNKKGGLANVVEKALGSIAKSGKSAIVEVLSPGQRPTKRGLIYAATPASDFVCGTQQVASGITVQVFTTGRGTPYGLMAVPVIKMATRTELANRWYDLMDINAGTIATGEETIEDVGWKLFHFILDVASGRKKTFSDQWGLHNQLAVFNPAPVT | not soluble |
| MANKETDILIIGGGLTGASLSLALQGLGFSVTLVESRPYSDKVNPDFDARSLALSPASQRILAMLGVWEILKEYTTPIHMIHVSDQHRFGASRLHGEKNSPLGYVVEMQYINRALSILINKEHLLTPAALKSIDFNNSTATVAHGDDMISIRAQLIVAADGTESMTRYLCNLPVKIKDYAQDAIVANVGLIKPHGNRAFERFTPNGPLALLPMMNDKMSLVWASKPEEAKRLVMLNDDDFLRELQTAFGYRLGRFGKVGKRYSYPLKQVLMPQQTKWPVVFVGNAAHTLHPVAGQGFNLGLRDIAALAQCISQKGLNPQMLEHYLQLRAHDQQMITWLTDGLIHLFTSRLPGMGVARNLGLLALDNIPALKNLLARYARGFGGITPDLVCEIALSAGEFQLEHHHHHH | soluble |
| MANLFKLGAENIFLGRKAATKEEAIRFAGEQLVKGGYVEPEYVQAMLDREKLTPTYLGESIAVPHGTVEAKDRVLKTGVVFCQYPEGVRFGEEEDDIARLVIGIAARNNEHIQVITSLTNALDDESVIERLAHTTSVDEVLELLAGRK | soluble |
| MANLQNMSSSPKHTNGSSERSENCGELCVVCGDKASGRHYGAVSCEGCKGFFKRSIRKRIGYVCRSQKDCPVTKFHRNRCQYCRLRKCLSMGMRSESVQAERRPVNNSSMLCNNDNNQQNTTPEHLSPNLLLSLVKLEHETKLGGLEALIKPGSPVMLQNTQDYMDVKRESIGEDEMTVIGLVPPSASPTSSGVGSSSSISDDSGPIYTSERARFEISVPLNTQNPRNHQYISEITTRLLFLTVHFVKDSRVSLRTSTMEGLLKSKWCDLYILALMQTADKIKLGQLLDNLTNQMAMGMECGQYSAEKFEKISEQMQRLLQLSQLFASRELTAVEYAYLKMISFTAQDLPSSMASPETRSVNQMASQELFEYVSSSKSTQNHMSNEHINVDDSTSEDNDTHVTSQQSSVNIAAERFSRILQLLPCLRWFDPATIVEIFFSGLIGPMSIETIIPFVLQMNLMSFFDQKMELGSGGASDTLSTSSLSEMMNNQ | not soluble |
| MANVYTAEATATGGRAGTTRSSDDRLNLDLSVPAEMGGDGGPGTNPEQLFAAGYAACFQGALGVVSRRNKIDVPADSTITARVGLQKAGLAFALDVELEGHFPGLSREQAEGLMHAAHEVCPYSAATRNNVDVRLKVRE | soluble |
| MAPKQPEKIENPPMASAPSSEKESGSTENEYGSSGEETNSSDDEHEEARDNVISTPLSFGQELVSFFKVENLTYLGIDEAKWIAYWDMVKDGPKKREVEKQLKKMLAMQMELFMMRTGFTKEVATVLFKQDNASSSGK | not soluble |
| MAPKTGETVVEKMEVDEAKQDVPATEPAKDLNAIAVENIKEQLAALDKGEEHLITRVLQVLPKTRKQINDNVLYKLVSSHLSSDAQFAEGMLKYLHYTPAADTEVQPMDTSNVKTKSPKKGVKPVFASPESDCYLRLLVLLHLYAQKKNTEALALGENQLTSIYNFDRRTLDGLAAKTLYFLCVIYEREGRLFDHQGFLNSRLRTATLRNFSESQAVLICWLLRCYLINRQYQSAAHLVSKVAFPDNASNNDLARYMYYQGRIKALQLDYNSAAGYFLQAQRKAPQEGAIGFKQAVQKWVVVIGLLQGEIPDRSVFRQPIYRKCLAHYLDLSRGVRDGDVARFNHNLEQFKTQFEADDTLTLIVRLRQNVIKTAIKQISLAYSRIYIKDIAKKLYITNETETEYIVAKAIADGAIDAVITSDVRDGPRYMQSSETADIYRTSEPQAHFDTRIRYCLELHNQAVKALRYPPKKKIAVETIEQAREREQQELEFAKELADEDDDDF | not soluble |
| MAPPEGGEYLHKVTANSMSVNGDVPETVTAALADQRVEGRVCLEAGAGVGNTTAGLLAAGAKRVYAVTNDADHAATVRDRIGDRNADRLAVIEADLRATPLATDSVDLVAAHGLCNVLPPAELAPIAAELTRVAKPDGCLVVDDYAVPPADAAVNRLFALENAAARVVDGRPVLTFYPPAVLVAVFAANGWSVERRKTLLNPVPWTEAHLDAHAEVVREYAAALPDSLGEPLTAMAEDLVAAIGSERTGTMYSLAFRRADA | not soluble |
| MAPTLAEAEKFLRNSKIDKIVLEKLAEILVTTMDDWNLIADQKVAESVWVVLTEAGRSGNLSENLGDGDVAKQLKSVFEKIRLRLQAQLGTIQWKNDELVDYDVTISKNNKSSLHADHTFQRVVLTLKVIPAGKMDVEALVVDFDEAQLNDFIWKLLEAKAMMDRIQKRVESR | not soluble |
| MAQENSTVKPTQAELTLLNVLWKMGPATVRQVHDVVSTTQKTGYTTVLKILQIMHEKSLVIRDESNRAHVYAAANSQTQTQSSLIKDLISKAFGGSTSKLVMRAIDDSTSEQEINDIRQLLNSLEK | not soluble |
| MAQFLEKATSALSEAKESVTSTAESVTASLTDAEKTVNQTARSTLTDAETTVAASVETVKTEAAAAPDKASGVSTQAKDAVDKAFSRGIEGAKSLLQTFEAKSSDISSKLVGGVTNLVSGASSSTVANRDLPVSTDNQPLLASGEKTPWWKNCCGVLDLFKKDT | soluble |
| MAQKVEAGGGAGGASWDDGVHDGVRKVHVGQGQDGVSSINVVYAKDSQDVEGGEHGKKTLLGFETFEVDADDYIVAVQVTYDNVFGQDSDIITSITFNTFKGKTSPPYGLETQKKFVLKDKNGGKLVGFHGRAGEALYALGAYFATTTTPVTPAKKLSAIGGDEGTAWDDGAYDGVKKVYVGQGQDGISAVKFEYNKGAENIVGGEHGKPTLLGFEEFEIDYPSEYITAVEGTYDKIFGSDGLIITMLRFKTNKQTSAPFGLEAGTAFELKEEGHKIVGFHGKASELLHQFGVHVMPLTN | soluble |
| MAQNLPTIALLATGGTIAGSGVDASLGSYKSGELGVKELLKAIPSLNKIARIQGEQVSNIGSQDMNEEIWFKLAQRAQELLDDSRIQGVVITHGTDTLEESAYFLNLVLHSTKPVVLVGAMRNASSLSADGALNLYEAVSVAVNEKSANKGVLVVMDDTIFSVREVVKTHTTHVSTFKALNSGAIGSVYYGKTRYYMQPLRKHTTESEFSLSQLKTPLPKVDIIYTHAGMTPDLFQASLNSHAKGVVIAGVGNGNVSAGFLKAMQEASQMGVVIVRSSRVGSGGVTSGEIDDKAYGFITSDNLNPQKARVLLQLALTKTNDKAKIQEMFEEY | soluble |
| MAQPYLPAEKFLSRKQETILLDEDEPAVVSSVRISPKKPYHVATTSSVRLTLYDTVVCEPLNLFSRFKKGVCSIDFRHDGRLLAIGGDEGKVRIFDVEKTTGSSKVALRVMQASQSTVKSVHFSPRGDTVFSMADDGKIKQYRVADTAYGVNAVPIIEIQAHEDAIRCGAVSSINDHIVLTGGYDHKVRLWDIRSKEKSLELDCEHPVESVLFLPGEQLIATAAGPIVKIWDTTTGRQLTALQAHYKTVTSLRLATNSTCLLSAGIDRRVNAFRTTNYSLINSWSMPSPVLDIDVSRDDQTMAIGMGNLLALYRRAEIKKEATASAAIEDKRSLIRTSAPPVKLVEKDRDMQKVDVVAKNADKLKIPKIDGMLSNFKHAAVIKLLFGGKFRSAMDTAVVSYLRVIVMRGAIHRALAGQERSVQKNILVFLNHNLYKAQYFSTLKEVVNAFFDVYALEKLDKDVVKHVQSLRGSLGRELEVQKMISSLIGSIDLIVSTTKMNVKSSSTALIEDNDVFGEPTIRARDLDELKPSDQGAEEEYEENMQIN | not soluble |
| MAQSNTTTTTLVVKSEDQEEVQEEHVLRLRAPPSPPHVTWAEGVVDNEHMGRLKSNCCCIYVAPRQWDDPSTWEPNEYETEHCRGHTLPERKKKKEDGGDEGDDENKENKDNKDNKDNKDNKDNNGCGCDHC | not soluble |
| MAQTTLIKNVNGYTFTDNSLTQFSAISFTDDIINKVYPIGAVLPASKGVIVIDGQGQTMLPGLIDAHGHVIGYGHSLEHHHHHH | not soluble |
| MAQVKTQRLYYSLKDYFKEKYGKRVQKITVALPFTCPNRDGTKGRGGCTYCYDGSKPSMLSPVIPLEVQIKEGIERAKKKYGEDIYFTIYYQSYTNTYADIETLKKVYDTALKFEGVVGIDVGTRPDCAPEEVLDLLEYYANKGLEVWVEYGLQSANFETLKKINRQHGVSDFVDAVLRTKKRNLKVCAHMIIGLPGETREDFIETAKLIASLPIDGIKIHPLHVIKGTVMEKQYLNEEFKTLTLEEYAEYCADVIELLPPDMVVHRITGETDEERLIAPEWCTFKYKNAVIQKVRETLERRGTYQGARYPFYKYGVLEHHHHHH | soluble |
| MAREKVSLTEFNLFSEGILEQGSSVRALEWAPIVPFADRAGFEQESRKALKKDFAIIELLANGNTIPAQSRTQYAPLYYIYPQYNNQEALGLDVYSNPTHILSMQVVVNSKAVIASAPITLVQDELAKPGMLFSKAVFLPPEVNELASNEAQQKLSIIKEGKLLGFVVAVAQFDSFFEQLAQQKEQEVSFFIQDVSGSQPLSLFGQAFPTVNRHVDTITIEVFSRLWQIDIALEHHHHHH | not soluble |
| MARGPGPLGMPRPDTVAMPKRGKRLKFRAHDACSGRVTVADYANSDPAVVRSGRVKKAIANAVQQEVKSLCGLEASQVPAEEALSGAGEPCDIIDSSDEMDAQEESIHERTVSRKKKSKRHKEELDGAGGEEYPMDIWLLLASYIRPEDIVNFSLICKNAWTVTCTAAFWTRLYRRHYTLDASLPLRLRPESMEKLRCLRACVIRSLYHMYEPFAARISKNPAIPESTPSTLKNSK | not soluble |
| MARIRVVQGDITEFQGDAIVNAANNYLKLGAGVAGAILRKGGPSIQEECDRIGKIRVGEAAVTGAGNLPVRYVIHAAVLGDEPASLETVRKATKSALEKAVELGLKTVAFPLLGTGVGGLPVEAVARVMLEEIKKAPDTLEVTLYGYREEDAEAIRRAL | soluble |
| MARPIGIYEKATPKHFTWLERLNFAKELGFDFVELSIDESDERLARLDWSKKERLELVNAIFETGVRIPTITFSGHRRYPLGSNDSEKEARALEMMEKCIEFAQDIGIRNIQLAGYDVYYEEKSPKTRARFLKNLRQACTWAEEAQVILSIEIMDDPFINSIEKYLAVEKEIDSPYLFVYPDAGNVSAWGNDLWSEFYIGHKSIAALHLKDTYAVTESSKGQFRDVPFGQGCVDWEAMFDVLKKTNYNGPFLIEMWSENCETVEETRAAIKEAQDFLYPLIEKAGLR | not soluble |
| MARPKTQSERMIILERIIGLVKEQGRITTNDVVAIFGVHRTTAEKYLRIALERGGFIRHGRCGIFRDQRAVIDYDLRRYSSSQVTGFSALPVLEKSPVMQVYGASKMSINKGGAQ | not soluble |
| MARRIGHPYQNRTPPKRKKPRTSFTRIQVAELEKRFHKQKYLASAERAALARGLKMTDAQVKTWFQNRRTKWRRQTAEEREAERQAANRLMLS | soluble |
| MARVAIPSVGKDLSSMVSDRFARAEYFIIYDTESGNVEVVENTIADAHGTGPKVVQSLVSKGVEYLIASNVGRNAFETLKAAGVKVYRFEGGTVQEAIDAFSEGRLEELTTFTREG | soluble |
